# Assay results taken from the nanobody polyreactivity screen of Harvey et al. (2022).
# Experiment: yeast display, Sf9 membrane polyspecificity reagent, FACS + sequencing; frameworks hold sequencing errors
# Method in brief: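 Nanobodies from a synthetic yeast display library (Saccharomyces cerevisiae BJ5465), induced 36–48 hours with galactose, were stained 1 hour at 4 °C with 10% biotinylated, detergent-solubilized Sf9 membrane reagent, enriched on streptavidin microbeads, then FACS-sorted. Anti-HA (expression) and streptavidin (reagent binding) fluorescence set low and high (top ~1%) gates. Polyreactivity labels come from the gate of origin. Genes were colony-PCR amplified, MiSeq 2 × 250 sequenced and filtered by CDR length.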
row,Sequence,polyreactivity (PSR sort gate)
1,QVQLVESGGGLVQAGGSLSLSCAAYGFTFWKYAMGRSRQAPGKESELVAAISVSGGRTYYADSVKGRFTISGDNAKNTVYLQINSLKPEDTASYYVATSFRNGWGSYYYWGQGTQVTVSS,high polyreactivity
2,QVQLVESGGGLVQAGGSLSLSCADSGSTFPKYAMGWYRQAPGKERELVASISVTTGSTYYADTVKGRFTISRDNAKNTVYLHMNSLKPVDTAVYYCAKRTYSRKLRGAYNYWGQGTQVTVSS,high polyreactivity
3,QVQLVESGGGLVQAGGSLSLSCDASGSIFYYYAMGWYRQAPGKEREMVASITSSGGTTSYADSVKGRFTISRDNAKNTVYLQMNSLKPEDTAVYYCNAQVYRYRICYDFWGEGTQVTVSS,low polyreactivity
4,QVQLVESGGGLVQAGGSLSLSCDASGSIIQGYAMGWYRQAPGKERELVAAISWSGTSTYYADSVKGRFTISRDNAKNTVYLQMNSLKPEDTEVYYCATDYYYYTAEYEYWGQGTQVTVSS,high polyreactivity
5,QVQLVESGGGLVQAGGSLSLSCPASGFTFPPYTMGWSRQAPGKEREFVATITKSGGSTYYADSVKGRFTISRDNAKNTVYLQMNSLKPEDTAVYYCNVVWQYSTYVRYNYWGQGTQVTVSS,low polyreactivity
6,QVQLVESGGGLVQAGGSLSLSSSASGRTFKGNAMGWYIQAPGKERELVAVITGSGGSTYYADSVKGRFTISRDNAKNTVYLQMNSLKPEDTAVYYCNKKLQRRSWYDYWGQGTQVTVSS,low polyreactivity
7,QVQLVESGGGLVQAGGSNRLSCAASGLTSFRYTMGWYRQAPGKDRELVAGISGSRGRTYYADSVKGRFTISRDNAKNTVYLQMNCMKAVDTAVYDCAAGWYTSHAKGKGGYWGQGTQVTVSS,high polyreactivity
8,QVQLVESGGGLVQAGGSNRLSCAASGYIFDIYAMGCYRQAPVKERELVAVITRSGGGTYYADSVKGRFTISRDNAKNSVYLQMNSLKPEDTAVYYCAAESYVYGGSDYDYWGQGTQVTVSS,low polyreactivity
9,QVQLVESGGGLVQAGGSRLSCAASGLIFIWYTMGWYRQAPGKERELVAAIDSSGGNTYYADSVKGRFTISRDNAKNTVYLQMNSLKPEDTAVYYCAKDVGHGAGNLMGYWGQGTQVTVSS,low polyreactivity
10,QVQLVESGGGLVQAGGSRRLSCAASGCILRDNAMGWYRQAPGKEREVVAAISYSGDLTYYADSVKGRFTISRDNAKNTVYLQMNSLIPEDTAVYDCAALYPKVRGYRSDDLWGQGTQVTVSS,high polyreactivity
11,QVQLVESGGGLVQAGGSRRLSCAASGFFFRTYSMGWYRQAPGTERELVAAISSSSGSTYYADSVKGRFTISRDNAKNTVYLQMNSLKPEDTAVYYCAAYSLSQKPRGYNYWGQGTQVTVSS,high polyreactivity
12,QVQLVESGGGLVQAGGSRRLSCAASGGIFNYYTMGWYRQATGKERELVAAINSSGGNTHYADSVKGRFTISRDNAKNTVYLQMYSLKPEDTAVYYCNADARSVWFYRVDYWGQGTQVTVSS,low polyreactivity
13,QVQLVESGGGLVQAGGSRRLSCAASGNIFPQNGMGWYRQAPAKERELVAAITRGGSTYYADSVKGRFTISRDNAKNTVYVQMHSLKPEDTAVYDCAAVRPQYRRRTKANPYNYWGQGTQVTVSS,high polyreactivity
14,QVQLVESGGGLVQAGGSRRLSCAASGNTIYFYVMGWYRQAPGKERELVAAISSSGGSTYYADSVKGRFTISRDNAKNTVYLQMNSLKPEDTSVYYCAAEMYLSRLRYWYDYWGQGTQVTVSS,high polyreactivity
15,QVQLVESGGGLVQAGGSRRLSCAASGRTFDSYTMGWYRQAPGKERELVADITFTGGSTYYADSVKGRFTISRDNAKNTVYLQMNSLKPDDTAVYYCNADREYKWYFRYDYWGQGTQVTVSS,low polyreactivity
16,QVQLVESGGGLVQAGGSRRLSCAASGSIFATYAIGWYRQAPGKERELVAAISWSGGRTYYADSVKGRFTISRDNAKNTVYLEMNSLKPEDTAVYYCNAVTLLGTRGYGYWGQGTQVTVSS,high polyreactivity

row,Sequence,polyreactivity (PSR sort gate)
1,QVQLVESGGGLVQAGGSRRLSCAASGSTFSDYAMGWYRQAPGKERELVAAISSSGGRTYYADSVKGRFTISRDNAKNTVYLQMNSLNPEDTAVYYCNARGYARGVSTGYDFWGQGTQVTVSS,high polyreactivity
2,QVQLVESGGGLVQAGGSRRLSCAASGSTFYGYAMGWYRHAPGKEREFVAAITTSGGSTYYADSVKGRFTISRDNAKNTVYLQMNSLKPEDTAVYYCAADGFYYDDGYWGQGTQVTVSS,low polyreactivity
3,QVQLVESGGGLVQAGGSRRLSCAASGYSLRIYAMGWYRQAPGTEMELVAAISRSGGRTFYADSVKGRFTISRDNAKNTVFLQMNSLKQEDTAVYYCAADPRCYDTGRMDYWGQGTQVTVSS,high polyreactivity
4,QVQLVESGGGLVQAGGSRRLSSAASGIILDHNAMGWYRQAPGKERELVAAISSGTRTNYADSVKGRFTISRDNAKNTVYLQMNSLKPEDTAVYYCAATIYRRYPSKSSITSYWGQGTQVTVSS,high polyreactivity
5,QVQLVESGGGLVQAGGSVRLSCAASGRIFGWYAMGCYRPAPGKERELVAAIPWSGDSTYYADSVKGRFTISRDNAKNTVYLQMNSLKPEDTAVYYCNKVRGYPRVAGYYSWGQGTQVTVSS,low polyreactivity
6,QVQLVESGGGLVQAGGSVRLSCAASGSTFLYNAMGWYRQAPGKEREVVAGIRRSGGSTYYADSVKGRFTISRANAKNTVYLQMNSLKPEDTAVYYCAVVPAMYRYRVVTYAYDYWGQGTQVNVSS,low polyreactivity
7,QVQLVESGGGLVQAGGSVRLSCGASGRSFQRYALGWYRQAPGTERELVAAIRWSGGATYGDSVKGRFTISRDNAKNTVYLQMNSLQPEDTAVYYCAAVDRRDPYYPKYNYWGQGTQVTVSS,high polyreactivity
8,QVQLVESGGGLVQAGGSVRLSCGASGSIFLGNSMGWYRQAPGTLRELVAAISSITGSTYYADSVKGRFSISRDIAKNTVYLQMNRLKQEETGVYYCARVPDTEGEYWGQGTQVTVSS,high polyreactivity
9,QVQLVESGGGLVQAGGTLRISCAASGRIYAGYVMGWYRQAPRKERELVAAISGSGAYTYYADSVKGRFTISRDYAKNTVYLQMNRLKPEDSAVYYCAADKPGIFSRFDYWGQGTQVSVSS,low polyreactivity
10,QVQLVESGGGLVQAGGTLRISCAASGSTFLFYAMGWYRQAPGKERELVAAISSSGTSTYYADSVKGRFTISRDNAKNTVYLQMNSLKPEDTACYYCARRGRSLRWKYDYWGQGTQVTVSS,low polyreactivity
11,QVQLVESGGGLVQAGGTLRLSCAASGFTFLDYAMGWYRQAPGKERELVATINWSDVSTYYADSVKGRFTISRDTAKNTVYLQINSLKPEDTAVYYSAVDVLTVGQSNDHWGQGTQVTVSS,high polyreactivity
12,QVQLVESGGGLVQAGGTLRLSCAASGFTFRYYAMGWYRQAPGKERELVAAISRGGTTNYADSVKGRFTISRDNAKNTVYLQMNSLKPEDTAVYYCAARQYYSRVTYDYWGQGTQVTVSS,high polyreactivity
13,QVQLVESGGGLVQAGGTLRLSCAASGIILSRYAMGWYIQAPGKERELVAAITRTTSTSYADSVKGRFTISRDNAKNTFYLQMNILKTEDTEVYYCAAVHYGGTAYYYWGQGTQVNVSS,high polyreactivity
14,QVQLVESGGGLVQAGGTLRLSCAASGITFKRYAMGWYRLAPGKERELVATISRSGGSPYADSVKGRFTISRDNAMNTVYLQMNSLKPEDSAVYYCNAVSQSSEYDYWGEGTQVTVSS,high polyreactivity
15,QVQLVESGGGLVQAGGTLRLSCAASGITFSDYTMGWYRQAPGKERELVDAISTSGGSTYYADSVKGRFTISRDNAKNTVYLQMNSQKPEDTAVYYCAAISAVTLRGYYYWGQRTQVTVSS,high polyreactivity
16,QVQLVESGGGLVQAGGTLRLSCAASGLTFYRYAMGWYRQAPGKERELVATIRSGDGTYYADSVKGRFTISRDNAKNTVYLQMNSLKPEDTAVYYCAAKKVYRVYGRYEYWGQGTQVTVSS,high polyreactivity
